Test results taken from patent US20260232827A1 (Zymeworks, published 2026).

Legend:
[1] = biological target: T1, Construct 6 (NaPi2b del 317-333) (human, UniProt O95436 1-690); assay: flow cytometry, HEK293-6e cells transfected with Construct 6
T1 construct: Deletion construct on HEK293-6e cells; also called CL_#29919
T1 sequence: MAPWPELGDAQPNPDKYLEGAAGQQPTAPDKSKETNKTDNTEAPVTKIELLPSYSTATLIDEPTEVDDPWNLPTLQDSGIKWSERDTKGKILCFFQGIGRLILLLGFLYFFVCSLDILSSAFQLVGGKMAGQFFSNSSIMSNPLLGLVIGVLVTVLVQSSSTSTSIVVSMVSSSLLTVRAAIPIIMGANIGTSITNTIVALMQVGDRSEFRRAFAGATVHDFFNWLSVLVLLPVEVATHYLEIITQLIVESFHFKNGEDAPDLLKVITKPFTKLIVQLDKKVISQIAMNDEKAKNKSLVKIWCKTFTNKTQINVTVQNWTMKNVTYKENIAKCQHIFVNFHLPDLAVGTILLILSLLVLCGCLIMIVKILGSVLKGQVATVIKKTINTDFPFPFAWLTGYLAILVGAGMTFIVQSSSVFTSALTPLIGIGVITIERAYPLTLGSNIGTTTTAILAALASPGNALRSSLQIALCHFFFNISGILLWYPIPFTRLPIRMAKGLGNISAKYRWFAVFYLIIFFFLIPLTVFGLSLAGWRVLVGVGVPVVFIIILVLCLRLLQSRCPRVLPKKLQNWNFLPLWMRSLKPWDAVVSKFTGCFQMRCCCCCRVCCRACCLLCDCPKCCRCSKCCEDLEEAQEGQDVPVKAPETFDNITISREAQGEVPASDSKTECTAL
Procedure: Following transfection, cells were seeded at 50,000 cells/well in conical-bottom 96-well plates and treated with a serial dilution of test antibody for 24 hours at 4° C. to prevent internalization. Cells were treated with final concentrations of all humanized antibodies of 200, 20, or 2 nM. Cells were treated with final concentrations of the reference anti-NaPi2a rabbit antibody of 50, 5, or 0.5 nM. […] Following incubation and washing, fluorescence was detected by flow cytometry on a BD LSRFortessa™ Cell Analyzer (BD Biosciences, Franklin Lake, NJ) with 1,000 minimum events collected per well. […] Background-subtracted AF647 Mean Fluorescence Intensity (MFI) values were calculated by subtracting the average MFI of three technical replicates of unstained (no primary antibody) cells.

[2] = biological target: T2, human sodium-dependent phosphate transporter 2B (NaPi2b) (human, UniProt O95436 1-690); assay: flow cytometry on HCC-78 cells (endogenous NaPi2b), 24 h at 4 C, anti-human IgG Fc AF647, APC-A GeoMean
T2 construct: UniProt ID is given as 095436 [sic]; also called hNaPi2b; Hu NaPi2b
T2 sequence: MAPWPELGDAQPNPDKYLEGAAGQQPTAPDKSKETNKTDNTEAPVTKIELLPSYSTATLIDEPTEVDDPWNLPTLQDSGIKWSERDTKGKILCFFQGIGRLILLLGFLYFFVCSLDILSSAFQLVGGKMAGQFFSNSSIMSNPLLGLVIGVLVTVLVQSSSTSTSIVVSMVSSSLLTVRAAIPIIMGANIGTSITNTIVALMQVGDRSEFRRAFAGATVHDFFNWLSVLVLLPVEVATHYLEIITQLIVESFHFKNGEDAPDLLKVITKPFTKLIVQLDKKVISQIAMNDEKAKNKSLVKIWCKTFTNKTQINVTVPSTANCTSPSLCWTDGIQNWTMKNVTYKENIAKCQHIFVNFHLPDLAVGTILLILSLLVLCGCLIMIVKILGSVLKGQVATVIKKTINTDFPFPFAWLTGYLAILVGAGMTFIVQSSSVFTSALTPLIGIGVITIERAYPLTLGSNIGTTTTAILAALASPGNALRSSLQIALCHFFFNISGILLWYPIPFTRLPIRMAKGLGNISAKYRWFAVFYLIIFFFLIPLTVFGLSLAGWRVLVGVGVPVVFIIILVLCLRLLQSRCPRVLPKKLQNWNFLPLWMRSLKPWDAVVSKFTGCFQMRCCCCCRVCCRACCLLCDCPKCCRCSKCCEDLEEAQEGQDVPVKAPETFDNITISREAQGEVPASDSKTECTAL
Procedure: (§1) Cells were maintained under standard culture conditions (37° C./5% CO₂) until assay set-up. […] Cells were removed from culture vessels using Cell Dissociation Buffer (Invitrogen, Waltham, MA), seeded at 50,000 cells/well in conical-bottom 96-well plates, and treated with test antibody or antibody-drug conjugate for 24 hours at 4° C. to prevent internalization. […] Following incubation and washing, fluorescence was detected by flow cytometry on a BD LSRFortessa™ Cell Analyzer (BD Biosciences, Franklin Lake, NJ) with 1,000 minimum events collected per well.

[3] = biological target: T2, human sodium-dependent phosphate …; assay: flow cytometry on H441 cells (endogenous NaPi2b), 24 h at 4 C, anti-human IgG Fc AF647, APC-A GeoMean
Procedure: as §1

[4] = biological target: T2, human sodium-dependent phosphate …; assay: flow cytometry on IGROV-1 cells (endogenous NaPi2b), 24 h at 4 C, anti-human IgG Fc AF647, APC-A GeoMean
Procedure: as §1

[5] = biological target: T2, human sodium-dependent phosphate …; assay: cell-based or functional assay
[6] = biological target: T3, cynomolgus monkey NaPi2b (cynomolgus monkey, UniProt O95436 1-690 (human entry)); assay: flow cytometry on HEK293-6e cells transiently transfected with cynomolgus NaPi2b, antibody 18-24 h at 4 C, anti-human IgG Fc AF647
T3 construct: also called Cyno NaPi2b; Cy NaPi2b
T3 chain: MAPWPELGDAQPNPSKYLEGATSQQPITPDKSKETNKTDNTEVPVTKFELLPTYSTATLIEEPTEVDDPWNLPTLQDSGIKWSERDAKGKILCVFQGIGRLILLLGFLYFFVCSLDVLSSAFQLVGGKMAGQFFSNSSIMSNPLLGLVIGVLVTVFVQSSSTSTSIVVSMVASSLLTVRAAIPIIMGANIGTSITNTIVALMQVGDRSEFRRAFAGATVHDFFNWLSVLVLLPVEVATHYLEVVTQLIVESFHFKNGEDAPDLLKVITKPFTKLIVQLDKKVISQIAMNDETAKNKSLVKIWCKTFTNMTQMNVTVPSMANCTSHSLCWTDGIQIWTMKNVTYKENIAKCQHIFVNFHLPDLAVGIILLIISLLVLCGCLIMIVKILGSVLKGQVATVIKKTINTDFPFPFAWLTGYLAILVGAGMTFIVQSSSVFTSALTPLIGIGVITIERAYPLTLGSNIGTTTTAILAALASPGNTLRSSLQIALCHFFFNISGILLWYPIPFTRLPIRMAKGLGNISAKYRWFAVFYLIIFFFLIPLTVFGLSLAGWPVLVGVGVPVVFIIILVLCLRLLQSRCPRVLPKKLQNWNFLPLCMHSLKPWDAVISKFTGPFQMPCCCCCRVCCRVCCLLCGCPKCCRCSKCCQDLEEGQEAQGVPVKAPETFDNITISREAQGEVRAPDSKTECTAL

B1: v18992 (MX35), reference anti-NaPi2b antibody (antibody, human IgG1, kappa)
heavy 1: GQVQLVQSGAEVVKPGASVKMSCKASGYTFTGYNIHWVKQAPGQGLEWIGAIYPGNGDTSYKQKFRGRATLTADTSTSTVYMELSSLRSEDSAVYYCARGETARATFAYWGQGTLVTVSSASTKGPSVFPLAPSSKSTSGGTAALGCLVKDYFPEPVTVSWNSGALTSGVHTFPAVLQSSGLYSLSSVVTVPSSSLGTQTYICNVNHKPSNTKVDKKVEPKSCDKTHTCPPCPAPELLGGPSVFLFPPKPKDTLMISRTPEVTCVVVDVSHEDPEVKFNWYVDGVEVHNAKTKPREEQYNSTYRVVSVLTVLHQDWLNGKEYKCKVSNKALPAPIEKTISKAKGQPREPQVYVYPPSRDELTKNQVSLTCLVKGFYPSDIAVEWESNGQPENNYKTTPPVLDSDGSFALVSKLTVDKSRWQQGNVFSCSVMHEALHNHYTQKSLSLSPG
heavy 2: not shown
light: GDIQMTQSPSSLSASVGDRVTITCSASQDIGNFLNWYQQKPGKTVKVLIYYTSSLYSGVPSRFSGSGSGTDYTLTISSLQPEDFATYYCQQYSKLPLTFGQGTKLELKRTVAAPSVFIFPPSDEQLKSGTASVVCLLNNFYPREAKVQWKVDNALQSGNSQESVTEQDSKDSTYSLSSTLTLSKADYEKHKVYACEVTHQGLSSPVTKSFNRGEC
binding result [1]: no binding (tested: 200 nM)

B2: v38591 (humanized anti-NaPi2b antibody, wild-type Fc) (antibody, human IgG1, kappa)
heavy: not shown
light: DVQMTQSPSSLSASVGDRVTITCRASQDVYSYLNWYQQKPGKAVKLLIYYTSRLQSGVPSRFSGSGSGTDYTLTISSLQPEDFATYYCQQYNIFPWTFGQGTKLEIKRTVAAPSVFIFPPSDEQLKSGTASVVCLLNNFYPREAKVQWKVDNALQSGNSQESVTEQDSKDSTYSLSSTLTLSKADYEKHKVYACEVTHQGLSSPVTKSFNRGEC
notes: also called v38591 Wild-type; H1L2
EC50 (read off the curve) [2]: ~3 nM | EC50 (read off the curve) [3]: ~0.6 nM | EC50 (read off the curve) [4]: ~2 nM

B3: v22277 (palivizumab, anti-RSV negative control, heterodimeric Fc) (antibody, human IgG1, kappa)
heavy 1: GQVTLRESGPALVKPTQTLTLTCTFSGFSLSTSGMSVGWIRQPPGKALEWLADIWWDDKKDYNPSLKSRLTISKDTSKNQVVLKVTNMDPADTATYYCARSMITNWYFDVWGAGTTVTVSSASTKGPSVFPLAPSSKSTSGGTAALGCLVKDYFPEPVTVSWNSGALTSGVHTFPAVLQSSGLYSLSSVVTVPSSSLGTQTYICNVNHKPSNTKVDKKVEPKSCDKTHTCPPCPAPELLGGPSVFLFPPKPKDTLMISRTPEVTCVVVDVSHEDPEVKFNWYVDGVEVHNAKTKPREEQYNSTYRVVSVLTVLHQDWLNGKEYKCKVSNKALPAPIEKTISKAKGQPREPQVYVYPPSRDELTKNQVSLTCLVKGFYPSDIAVEWESNGQPENNYKTTPPVLDSDGSFALVSKLTVDKSRWQQGNVFSCSVMHEALHNHYTQKSLSLSPG
heavy 2: not shown
light: GDIQMTQSPSTLSASVGDRVTITCKSQLSVGYMHWYQQKPGKAPKLLIYDTSKLASGVPSRFSGSGSGTEFTLTISSLQPDDFATYYCFQGSGYPFTFGGGTKLEIKRTVAAPSVFIFPPSDEQLKSGTASVVCLLNNFYPREAKVQWKVDNALQSGNSQESVTEQDSKDSTYSLSSTLTLSKADYEKHKVYACEVTHQGLSSPVTKSFNRGEC
notes: also called neg control
Internalized Fluorescence Fold-Over Palivizumab, HCC-78, 5 hrs, 10 nM [5]: 1 fold | Internalized Fluorescence Fold-Over Palivizumab, HCC-78, 24 hrs, 10 nM [5]: 1 fold | Internalized Fluorescence Fold-Over Palivizumab, NCI-H441, 5 hrs, 10 nM [5]: 1 fold | Internalized Fluorescence Fold-Over Palivizumab, NCI-H441, 24 hrs, 10 nM [5]: 1 fold | binding result [6]: no binding (tested: 200 nM)
